{
  "source": "patent EP4687981A2",
  "about": "(dated 2026)",
  "target": "T1, human CDH11 on primary human fibroblast-like synoviocytes (FLS) (human, UniProt P55287 54-796)",
  "T1 construct": "whole, on cells; also called human FLS; human synoviocytes",
  "T1 sequence (looked up)": "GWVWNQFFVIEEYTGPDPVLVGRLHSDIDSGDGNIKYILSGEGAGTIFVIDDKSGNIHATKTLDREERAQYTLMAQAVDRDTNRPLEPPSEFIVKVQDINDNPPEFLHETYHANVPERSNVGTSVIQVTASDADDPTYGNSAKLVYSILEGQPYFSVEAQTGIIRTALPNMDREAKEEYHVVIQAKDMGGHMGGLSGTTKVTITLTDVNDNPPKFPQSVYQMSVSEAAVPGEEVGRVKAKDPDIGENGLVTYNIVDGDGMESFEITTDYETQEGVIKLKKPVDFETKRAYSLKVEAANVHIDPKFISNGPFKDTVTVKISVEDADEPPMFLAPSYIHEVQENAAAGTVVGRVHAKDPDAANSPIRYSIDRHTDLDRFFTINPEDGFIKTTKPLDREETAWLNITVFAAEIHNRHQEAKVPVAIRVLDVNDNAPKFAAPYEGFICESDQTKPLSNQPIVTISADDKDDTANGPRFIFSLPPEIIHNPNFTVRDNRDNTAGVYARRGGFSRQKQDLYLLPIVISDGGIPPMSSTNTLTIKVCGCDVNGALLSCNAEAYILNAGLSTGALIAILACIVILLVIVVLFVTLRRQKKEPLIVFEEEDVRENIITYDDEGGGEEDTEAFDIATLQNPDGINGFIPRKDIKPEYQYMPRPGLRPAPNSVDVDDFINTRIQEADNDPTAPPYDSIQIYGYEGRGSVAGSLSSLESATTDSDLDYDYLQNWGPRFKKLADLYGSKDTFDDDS",
  "test": "flow cytometry, hybridoma supernatant on primary human FLS",
  "data": [
    {"binder": "anti-CDH11 antibody 10E1 (antibody, V domains shown, Monoclonal from a VelocImmune mouse hybridoma; It was detected with anti-mouse IgG Fc, so the constant regions are mouse; the isotype cannot be read in this copy; also called clone 10E1) VH: QVQLQQSGPGLVKPSQTLSLTCAISGDSVSSNSAAWNWIRQSPSRGLEWLGRTYYRSKWYNDYAVSVKSRITINPDTSKNQFSLQLNSMTPEDTAVYYCARATMVRGAFDYWGQGTLVTVSS VL: not shown", "values": [
      {"measurement": "binding result", "value": "binds"}
    ]}
  ]
}
